Assay results taken from publication PMC9401620.

Target: T1, RBM46 (mouse, UniProt P86049 1-533)
T1 sequence: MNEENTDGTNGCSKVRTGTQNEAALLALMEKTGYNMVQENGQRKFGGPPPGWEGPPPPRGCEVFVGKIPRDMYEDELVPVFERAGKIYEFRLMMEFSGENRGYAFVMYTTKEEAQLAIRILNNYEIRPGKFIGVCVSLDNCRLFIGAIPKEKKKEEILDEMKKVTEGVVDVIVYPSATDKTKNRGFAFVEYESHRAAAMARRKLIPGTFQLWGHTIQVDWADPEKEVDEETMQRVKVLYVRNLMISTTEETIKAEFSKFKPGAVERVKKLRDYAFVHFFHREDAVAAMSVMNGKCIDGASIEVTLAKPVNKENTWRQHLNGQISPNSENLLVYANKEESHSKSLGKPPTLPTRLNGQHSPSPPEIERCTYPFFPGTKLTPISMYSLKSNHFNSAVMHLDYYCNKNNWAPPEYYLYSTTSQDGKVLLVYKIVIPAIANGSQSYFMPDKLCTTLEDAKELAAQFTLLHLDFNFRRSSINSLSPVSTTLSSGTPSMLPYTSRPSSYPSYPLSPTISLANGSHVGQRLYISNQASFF
Assay: EMSA

UUGUGAAACUAAAACCCGAC (ssRNA) [Ccna2 3'UTR RNA probe]
binding result: binds

UGUUUGAAACAGGAGUCGCU (ssRNA) [RNA probe without RBM46-binding motif]
binding result: no binding
